Results: patent US20200148765A1 (OSAKA UNIVERSITY, published 2020)
Positions count from the first letter of the chain named.

B1: rat anti-CLDN-5 antibody R20 (antibody, rat IgG2a, V domains shown)
VH: EVQLVESGGGLVQPGRSMKLSCAVSGFTFSDYYMAWVRQAPKKGLEWVASISYEGRNTYYGDSVKGRFTISRDNAKNTLYLQMNSLRSEDTATYYCARHPRRYFDFWGPGTMVTVSS
VL: DIVMTQSPSSLAVSAGETVTINCKSSQSLLFSGDQENHLAWYQQKAGQSAKLLIYWASTRESGVPDRFIGSGSGADFTLTISSMQAEDRATYYCQQNYDIPYTFGAGTKLEL
notes: Hybridoma monoclonal; also called antibody L
B2: rat anti-CLDN-5 antibody R11 (antibody, rat IgG2b, V domains shown)
VH: EVQLVESGGGLVQPGRSRKLSCAASGFTFNNYGMAWVRQAPTKGLEWVASITNSGYTTYYRDSVKGRFTISRDNAKNALYLQMDSLRSEDTATYYCTTGGYGGYFPLFDYWGHGVMVTVSS
VL: DVVMTQTPVSLSVSLGGQTSISCRSSQSLFHSDGNTYLYWYLRKPGQSPQLLIYKVSNRFSGVPDRFSGSGSGTDFTLKISRVEPEDLGLYYCYQGTHYPPTFGSGTKLEI
notes: Hybridoma monoclonal; also called antibody J
B3: rat anti-CLDN-5 antibody R8 (antibody, rat IgG2b, V domains shown)
VH: VKVVESGGGLVQPGRSMKLSCAASGFTFSDYFMAWVRQSPKKGLEWVASINYGGSRTYYEDSVKGRFTISRDNAKSTLYLQMNSLRSEDTATYYCARHPHRLFDYWGQGVMVTVSS
VL: DIVMTQSPSFLAVSVGETVTINCKSSQSFLSSGNQENYLAWYQQKPGQSPKLLIHLASTRESGVPDRFIGSGSGTDFTLTISSMQAEDVAIYYCQQHYDIPYTFGAGTKLEL
notes: Hybridoma monoclonal; also called antibody H
B4: rat anti-CLDN-5 antibody R28 (antibody, rat IgG2a, V domains shown)
VH: EVQLVESGGGLVQPGRSLKLSCAASGFTFSDYFMAWVRQAPKKGLEWVASINYEGSRTYYGDSVKDRFTISRDNTKTTLYLQMTSLRSEDTATYYCARHPRRYFDFWGQGVMVTVSS
VL: DIVMTQSPSSLAVSAGETVTINCKSSRSLFSSGYQENYLAWYQQKPGQSPKMLIYLASTRESGVPDRFIGSGSGTDFTLTINTLQAEDLAIYYCQQHYDIPYTFGAGTKLEL
notes: Hybridoma monoclonal; also called antibody M
B5: mouse anti-CLDN-5 antibody M29 (antibody, mouse IgG3, V domains shown)
VH: EVQLVESGGGLVQPKGSLKLSCAASGFTFNIYAMHWVRQAPGKGLEWVARIRSKSSNYATYYVDSVKDRFIISRDDSQSMLYLQVNNLKTEDTAMYYCVREGNWDCFDYWGQGTTLTVSS
VL: DIVMSQSPSSLPVSVGQKVTMTCKSSQSLLYTSNQKNYLAWYQQKPGQSPKLLIYWASTRESGVPDRFTGSGSGTDFTLTISSVKAEDLAIYYCQQYYRYHTFGGGTRLEIK
notes: Hybridoma monoclonal; also called antibody D

These binders were tested against T1, wild-type human CLDN-5 protein (human, UniProt O00501 1-218) (assay: FACS, hybridoma supernatant on CLDN-expressing cells).
T1 construct: Four-transmembrane tight junction protein expressed by retrovirus on HT-1080 (or MDCKII) cells; also called hCLDN-5; human Claudin-5 protein
T1 sequence: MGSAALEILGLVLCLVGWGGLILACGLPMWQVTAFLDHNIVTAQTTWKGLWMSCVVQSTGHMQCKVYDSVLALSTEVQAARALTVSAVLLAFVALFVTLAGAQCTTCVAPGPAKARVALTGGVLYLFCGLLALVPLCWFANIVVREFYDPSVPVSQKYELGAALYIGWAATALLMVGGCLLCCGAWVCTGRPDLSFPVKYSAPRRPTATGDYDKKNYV
Text: (§1) By the insertion of a DNA fragment consisting of an hCLDN-1 protein (SEQ ID NO: 30)-encoding sequence, an hCLDN-2 protein (SEQ ID NO: 31)-encoding sequence, an hCLDN-3 protein (SEQ ID NO 32)-encoding sequence, an hCLDN-4 protein (SEQ ID NO: 33)-encoding sequence, an hCLDN-6 protein (SEQ ID NO: 34)-encoding sequence, an hCLDN-7 protein (SEQ ID NO: 35)-encoding sequence, an mCLDN-1 protein (SEQ ID NO: 37)-encoding sequence, an mCLDN-2 protein (SEQ ID NO: 38)-encoding sequence, an mCLDN-3 protein (SEQ ID NO: 39)—encoding sequence, or an mCLDN-5 protein (SEQ ID NO: 29)-encoding sequence, vectors for preparing a retrovirus were obtained. By using these vectors and the vector for preparing a retrovirus prepared in Example 1-2), various CLDN protein-expressing cells were prepared. By using these cells and a culture supernatant of hybridomas producing antibodies as primary antibodies, FACS assay was performed by the following method.
(§2) The obtained CLDN-expressing cells were seeded in a 10 cm dish, and on the next day, the cells were collected. The primary antibodies (100 μL) were added to the obtained 1.0×10⁵ cells and allowed to react for 1 hour at 4° C. At this time, a mixed solution of a C-CPE mutant (C-CPEmt) and a mouse anti-His tag antibody (Abeam) used in Non-Patent Literature 3 was used as positive control. The cells were washed three times with 0.2% BSA-PBS, then mixed with 100 μL of a secondary antibody solution (FITC conjugated goat anti-mouse IgG or anti-rat IgG (Jackson Immune Research, 115-095-003 or 112-095-003) 400x diluted with 1% BSA-PBS, and allowed to react for 1 hour at 4° C. The cells were washed with 0.2% BSA-TBS and then analyzed using FACS caliber (BD Bioscience).

| Binder | binding result |
| --- | --- |
| B1 | binds |
| B2 | binds |
| B3 | binds |
| B4 | binds |
| B5 | binds |

The binders below were run against T2, mCLDN-1 protein (mouse, UniProt O88551 1-211) in the same assay as above.
T2 construct: Expressed on cells by retrovirus; also called mouse Claudin-1 protein
T2 sequence: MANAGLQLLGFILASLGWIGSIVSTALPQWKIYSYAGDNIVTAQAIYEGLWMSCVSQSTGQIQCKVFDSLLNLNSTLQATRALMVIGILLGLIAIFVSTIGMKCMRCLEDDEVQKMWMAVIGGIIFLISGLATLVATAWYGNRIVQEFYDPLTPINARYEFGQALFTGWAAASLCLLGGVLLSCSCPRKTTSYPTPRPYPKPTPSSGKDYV
Text: as §1, §2

| Binder | binding result |
| --- | --- |
| B1 | no binding |
| B2 | no binding |
| B3 | no binding |
| B4 | no binding |
| B5 | no binding |

What follows are binders tested against T3, mCLDN-3 protein (mouse, UniProt Q9Z0G9 1-219) in the same assay as above.
T3 construct: Expressed on cells by retrovirus; also called mouse Claudin-3 protein
T3 sequence: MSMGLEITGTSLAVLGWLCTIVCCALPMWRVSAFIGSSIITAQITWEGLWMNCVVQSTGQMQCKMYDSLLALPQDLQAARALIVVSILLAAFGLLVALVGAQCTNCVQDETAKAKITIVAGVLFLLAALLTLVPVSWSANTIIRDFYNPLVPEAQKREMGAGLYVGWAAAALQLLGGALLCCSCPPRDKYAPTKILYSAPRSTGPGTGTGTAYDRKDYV
Text: as §1, §2

| Binder | binding result |
| --- | --- |
| B1 | no binding |
| B2 | no binding |
| B3 | no binding |
| B4 | no binding |
| B5 | no binding |

These binders were tested against T4, mouse CLDN-5 protein (mouse, UniProt O54942 1-218) in the same assay as above.
T4 construct: Expressed on cells by retrovirus; also called mCLDN-5; MDCKII/mCLDN-5
T4 sequence: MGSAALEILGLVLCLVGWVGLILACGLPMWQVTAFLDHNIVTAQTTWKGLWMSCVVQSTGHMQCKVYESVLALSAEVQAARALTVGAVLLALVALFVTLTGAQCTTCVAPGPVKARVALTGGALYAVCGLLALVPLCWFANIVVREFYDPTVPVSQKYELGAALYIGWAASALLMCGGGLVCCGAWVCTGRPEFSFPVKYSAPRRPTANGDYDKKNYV
Text: as §1, §2

| Binder | binding result |
| --- | --- |
| B1 | no binding |
| B2 | no binding |
| B3 | no binding |
| B4 | no binding |
| B5 | no binding |

Each binder was assayed against T5, mCLDN-2 protein (mouse, UniProt O88552 1-230) in the same assay as above.
T5 construct: Expressed on cells by retrovirus; also called mouse Claudin-2 protein
T5 sequence: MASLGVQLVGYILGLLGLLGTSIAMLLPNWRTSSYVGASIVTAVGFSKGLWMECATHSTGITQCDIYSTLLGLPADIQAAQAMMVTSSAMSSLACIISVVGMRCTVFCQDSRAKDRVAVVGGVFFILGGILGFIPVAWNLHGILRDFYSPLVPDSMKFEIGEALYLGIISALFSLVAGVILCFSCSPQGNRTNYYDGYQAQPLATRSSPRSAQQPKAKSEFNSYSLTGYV
Text: as §1, §2

| Binder | binding result |
| --- | --- |
| B1 | no binding |
| B2 | no binding |
| B3 | no binding |
| B4 | no binding |
| B5 | no binding |

Molecular target: T6, crab-eating macaque CLDN-5 protein (crab-eating macaque, UniProt O00501 1-218 (human entry))
T6 construct: Expressed on cells by retrovirus; also called cCLDN-5; MDCKII/cCLDN-5
T6 chain: T1 sequence with S86G, F127L, C179G, G190S
Assay: FACS on CLDN-5-expressing cells, antibody 5 µg/mL
Method: as §2
In the same manner as in Example 1-2), a DNA fragment consisting of a cCLDN-5 protein (SEQ ID NO: 28)-encoding sequence or an mCLDN-5 protein (SEQ ID NO: 29)-encoding sequence was inserted into a pCX4pur vector, thereby obtaining vectors for preparing a retrovirus. By using these vectors with the vector for preparing a retrovirus prepared in Example 1-2), various animal species CLDN-5 protein-expressing cells were prepared. By using these cells and the antibodies (antibody concentration: 5 μg/mL, as primary antibody), FACS assay was performed in the same manner as in 3-1).

| Binder | binding result |
| --- | --- |
| B1 | binds |
| B2 | binds |
| B3 | binds |
| B4 | binds |
| B5 | binds |
